Test results published in paper PMC9940631 (Molecular Cancer Therapeutics, 2022).
Blank lines part the entries; values can stand above or below the molecule they belong to. Where a SMILES comes first, the peptide text is derived from it. [ ]: non-standard residue; d: D form. The star is where a group is joined. Dolaproine = CO[C@@H]([C@@H]1CCCN1)[C@@H](C)C(=O)O; Dil = CC[C@H](C)[C@H](NC)[C@@H](CC(=O)O)OC; X1 = C[C@@H](N*)[C@@H](O)c1ccccc1; NMeV = CN[C@H](C(=O)O)C(C)C

Key:
[1] = system: NCI-H292, MDA-MB-468, and NCI-H322 CDX tumors; experiment: Tumor MMAE accumulation after BT8009 in CDX models; type: in vivo, mouse; settings: after administration of BT8009, three CDX models, n = 3 per timepoint, LC/MS-MS
[2] = target: T1, endogenous Nectin-4 expressed on the cell membrane of MDA-MB-468 cells (Homo sapiens, UniProt Q96NY8); experiment: High content imaging of binding to live MDA-MB-468 cells; settings: anti-MMAE antibody detection
T1 sequence (Q96NY8 32-510): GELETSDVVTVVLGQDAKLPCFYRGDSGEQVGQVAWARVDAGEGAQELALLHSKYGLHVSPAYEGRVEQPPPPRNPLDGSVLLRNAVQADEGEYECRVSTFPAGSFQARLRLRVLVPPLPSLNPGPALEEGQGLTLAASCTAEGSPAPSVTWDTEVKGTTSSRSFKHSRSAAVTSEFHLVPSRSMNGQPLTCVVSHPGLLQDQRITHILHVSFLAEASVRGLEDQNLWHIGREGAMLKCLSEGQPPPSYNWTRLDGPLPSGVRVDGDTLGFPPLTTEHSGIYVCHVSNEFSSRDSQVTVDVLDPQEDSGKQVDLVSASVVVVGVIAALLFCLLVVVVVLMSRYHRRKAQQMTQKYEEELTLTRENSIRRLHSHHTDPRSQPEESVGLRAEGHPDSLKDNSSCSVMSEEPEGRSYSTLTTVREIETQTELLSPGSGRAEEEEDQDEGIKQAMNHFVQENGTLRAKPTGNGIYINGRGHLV

[3] = target: endogenous Nectin-4 expressed on the cell membrane of MDA-MB-468 cells (human (endogenous in MDA-MB-468)) (UniProt Q96NY8); experiment: high content imaging of binding to live cells
hNectin3 (human) = hNectin3 (human) (UniProt Q9NQS3); experiment: SPR
hNectin1 (human) = hNectin1 (human) (UniProt Q15223); experiment: SPR
hNecl5 (human) = hNecl5 (human) (UniProt P15151); experiment: SPR
[4] = target: human Nectin-4 extra-cellular domain (human) (UniProt Q96NY8); experiment: SPR
hNecl4 (human) = hNecl4 (human) (UniProt Q8NFZ8); experiment: SPR
hNectin2 (human) = hNectin2 (human) (UniProt Q92692); experiment: SPR
hNecl1 (human) = hNecl1 (human) (UniProt Q8N126); experiment: SPR
hNecl3 (human) = hNecl3 (human) (UniProt Q8N3J6); experiment: SPR
hNecl2 (human) = hNecl2 (human) (UniProt Q9BY67); experiment: SPR
[5] = system: head and neck PDX (HN-13–001); experiment: Head and neck PDX model; type: in vivo, mouse; settings: dosed initially at 5 mg/kg (D0, D7) and subsequently 10 mg/kg (D14)
Nectin-4 = experiment: SPR of Nectin-4 ADC; type: binding; settings: read-out: KD for Nectin-4, chip coated with ADC, protein passed over it
LU-01–0412 PDX = experiment: LU-01–0412 lung PDX model; type: in vivo, mouse; settings: PDX NSCLC, Fig. 6D; rate and degree of regression comparable
[6] = terminal plasma half-life; ref EV multi-disciplinary review and evaluation; cited from earlier work
[7] = In ICR SCID mouse; ref Enfortumab vedotin data from literature; cited from earlier work
[8] = terminal plasma half-life; ref EV multi-disciplinary review and evaluation; cited from earlier work; remark: listed apart in the source

Chain of hNectin3 (human) (Q9NQS3 58-549): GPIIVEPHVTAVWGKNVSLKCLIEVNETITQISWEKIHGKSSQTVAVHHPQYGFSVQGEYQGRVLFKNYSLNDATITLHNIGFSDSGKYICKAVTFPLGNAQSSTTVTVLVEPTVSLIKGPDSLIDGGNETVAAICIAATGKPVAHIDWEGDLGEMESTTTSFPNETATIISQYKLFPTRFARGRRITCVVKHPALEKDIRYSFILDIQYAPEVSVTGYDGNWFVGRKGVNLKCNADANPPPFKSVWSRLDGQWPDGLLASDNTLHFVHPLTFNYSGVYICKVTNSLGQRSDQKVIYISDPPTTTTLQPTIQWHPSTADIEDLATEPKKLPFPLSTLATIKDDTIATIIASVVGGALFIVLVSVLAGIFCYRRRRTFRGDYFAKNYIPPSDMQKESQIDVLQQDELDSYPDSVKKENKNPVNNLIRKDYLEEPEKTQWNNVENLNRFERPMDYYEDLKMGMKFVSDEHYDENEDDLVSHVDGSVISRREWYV
Chain of hNecl3 (human) (Q8N3J6 25-435): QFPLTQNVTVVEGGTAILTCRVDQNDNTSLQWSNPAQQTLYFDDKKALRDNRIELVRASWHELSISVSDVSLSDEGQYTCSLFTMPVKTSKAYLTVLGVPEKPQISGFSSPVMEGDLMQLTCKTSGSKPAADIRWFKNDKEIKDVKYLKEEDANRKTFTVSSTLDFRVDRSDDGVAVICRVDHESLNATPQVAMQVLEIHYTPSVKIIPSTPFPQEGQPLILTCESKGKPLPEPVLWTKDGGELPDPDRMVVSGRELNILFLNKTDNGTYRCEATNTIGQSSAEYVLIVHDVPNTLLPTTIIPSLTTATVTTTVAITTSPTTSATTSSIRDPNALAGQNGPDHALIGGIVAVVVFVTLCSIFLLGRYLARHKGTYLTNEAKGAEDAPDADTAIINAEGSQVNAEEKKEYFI
Chain of hNectin2 (human) (Q92692 32-538): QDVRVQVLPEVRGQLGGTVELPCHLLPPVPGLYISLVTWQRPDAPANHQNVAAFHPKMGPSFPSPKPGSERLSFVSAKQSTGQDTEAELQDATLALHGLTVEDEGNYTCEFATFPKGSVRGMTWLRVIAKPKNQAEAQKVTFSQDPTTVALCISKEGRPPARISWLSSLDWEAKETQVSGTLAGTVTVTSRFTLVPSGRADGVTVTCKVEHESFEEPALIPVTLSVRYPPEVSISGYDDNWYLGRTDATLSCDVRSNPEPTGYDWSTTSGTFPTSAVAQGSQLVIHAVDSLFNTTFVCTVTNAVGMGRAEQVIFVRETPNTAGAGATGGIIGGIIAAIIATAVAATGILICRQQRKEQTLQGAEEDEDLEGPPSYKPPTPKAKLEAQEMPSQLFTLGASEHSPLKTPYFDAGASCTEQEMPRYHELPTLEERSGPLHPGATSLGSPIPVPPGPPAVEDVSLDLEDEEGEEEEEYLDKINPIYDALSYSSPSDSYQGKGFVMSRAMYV
Chain of hNecl2 (human) (Q9BY67 45-442): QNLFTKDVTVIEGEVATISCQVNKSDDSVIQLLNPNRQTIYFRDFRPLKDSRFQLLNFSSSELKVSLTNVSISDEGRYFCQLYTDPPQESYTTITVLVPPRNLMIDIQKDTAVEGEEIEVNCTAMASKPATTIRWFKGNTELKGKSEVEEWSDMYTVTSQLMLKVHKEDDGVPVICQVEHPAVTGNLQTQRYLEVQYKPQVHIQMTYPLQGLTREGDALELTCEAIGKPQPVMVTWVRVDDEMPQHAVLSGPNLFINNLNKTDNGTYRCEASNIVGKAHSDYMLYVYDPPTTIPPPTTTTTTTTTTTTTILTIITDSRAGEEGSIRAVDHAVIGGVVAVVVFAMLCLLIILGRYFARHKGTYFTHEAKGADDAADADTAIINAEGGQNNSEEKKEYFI
Chain of hNectin1 (human) (Q15223 31-517): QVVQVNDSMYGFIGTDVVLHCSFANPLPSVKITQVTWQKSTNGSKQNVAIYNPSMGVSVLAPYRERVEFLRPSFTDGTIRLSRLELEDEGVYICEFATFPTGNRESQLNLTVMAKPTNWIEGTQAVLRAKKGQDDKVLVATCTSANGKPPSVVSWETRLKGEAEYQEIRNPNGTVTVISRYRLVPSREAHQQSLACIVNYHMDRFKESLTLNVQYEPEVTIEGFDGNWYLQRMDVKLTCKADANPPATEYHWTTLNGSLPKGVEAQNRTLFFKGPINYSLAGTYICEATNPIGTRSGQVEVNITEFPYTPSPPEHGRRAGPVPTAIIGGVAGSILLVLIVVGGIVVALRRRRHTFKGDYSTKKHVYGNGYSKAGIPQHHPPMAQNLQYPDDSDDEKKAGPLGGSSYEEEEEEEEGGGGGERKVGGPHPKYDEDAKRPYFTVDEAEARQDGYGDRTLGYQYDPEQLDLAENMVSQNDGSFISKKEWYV
Chain of hNecl4 (human) (Q8NFZ8 21-388): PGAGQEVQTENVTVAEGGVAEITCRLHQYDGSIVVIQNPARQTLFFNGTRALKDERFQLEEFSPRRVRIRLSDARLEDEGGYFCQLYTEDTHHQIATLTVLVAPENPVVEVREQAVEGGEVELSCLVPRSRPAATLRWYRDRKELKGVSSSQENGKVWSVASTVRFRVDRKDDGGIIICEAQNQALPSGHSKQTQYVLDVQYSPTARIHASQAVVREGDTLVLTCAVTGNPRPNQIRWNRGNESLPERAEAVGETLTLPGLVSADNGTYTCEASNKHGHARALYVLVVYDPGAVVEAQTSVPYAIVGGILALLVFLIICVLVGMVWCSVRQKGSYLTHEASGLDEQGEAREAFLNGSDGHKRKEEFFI
Chain of hNecl1 (human) (Q8N126 25-398): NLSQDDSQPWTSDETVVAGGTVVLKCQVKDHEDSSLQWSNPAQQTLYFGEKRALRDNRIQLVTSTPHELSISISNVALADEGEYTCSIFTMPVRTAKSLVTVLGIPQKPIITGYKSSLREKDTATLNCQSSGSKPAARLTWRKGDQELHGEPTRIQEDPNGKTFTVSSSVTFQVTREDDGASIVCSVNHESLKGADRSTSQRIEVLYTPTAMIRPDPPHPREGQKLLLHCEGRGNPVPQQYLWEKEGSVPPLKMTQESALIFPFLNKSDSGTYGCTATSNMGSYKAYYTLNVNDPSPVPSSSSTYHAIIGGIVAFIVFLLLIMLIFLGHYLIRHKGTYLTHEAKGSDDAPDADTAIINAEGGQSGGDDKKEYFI

Molecule: CC[C@H](C)[C@@H]([C@@H](CC(=O)N1CCC[C@H]1[C@H](OC)[C@@H](C)C(=O)N[C@H](C)[C@@H](O)c1ccccc1)OC)N(C)C(=O)[C@@H](NC(=O)[C@@H](NC)C(C)C)C(C)C [MMAE, mono-methylauristatin E] (H-[NMeV]V[Dil][Dolaproine]-X1)
time to peak tumor concentrations of total MMAE [1]: 2 to 4 h | affinity for the cells (in words) ([2]; MDA-MB-468 cells, 4°C): no affinity

Kd [3]: > 10 µM
Molecule: BCY8781 (peptide)

Molecule: BT8009 (peptide)
Kd (hNectin3 (human)): > 20 µM | Kd (hNectin1 (human)): > 20 µM | Kd (hNecl5 (human)): > 20 µM | Kd [4]: 0.0025 µM | Kd (hNecl4 (human)): > 20 µM | Kd (hNectin2 (human)): > 20 µM | Kd (hNecl1 (human)): > 20 µM | Kd (hNecl3 (human)): > 20 µM | Kd (hNecl2 (human)): > 20 µM | Kd [3]: 0.0129 µM

Molecule: Nectin-4 ADC: in-house EV analog; enfortumab-sequence antibody conjugated with MC-VC-PAB MMAE, 152kDa, DAR 3.98
antitumor response, ADC [5]: minimally reduced tumor growth rate | Bmax(RFU) on MDA-MB-468 cells ([2]; 45 minutes at 4°C): 35.2 ± 2.2 RFU | Kd (Nectin-4): 0.0012 to 0.0046 µM | tumor regrowth after treatment cessation (LU-01–0412 PDX): tumor regrowth from drug cessation

Molecule: enfortumab vedotin [EV]
EV t1/2 rat [6]: 24 to 31.2 h | Vdss (L/kg), EV, Mouse [7]: 0.08 L/kg | EV t1/2 NHP [8]: 17 to 40.8 h
